{"source": "patent US20250382355A1", "about": "(Merck Sharp & Dohme, published 2025)", "binders": {"B1": {"name": "9B2 VHH-Fc (Fc fusion)", "chain": "QVQLVESGGGLVQPGGSLRLSCAASGFTLDNYAIGWFRQAPGKEREGVSCISSSDGDTQYADSVKGRFTISRDNAKNTVYLQMNSLKPEDTAVYYCAVEKVYARSWFFHLCSELDFGSWGQGTQVTVSS"}, "B2": {"name": "1A11 VHH-Fc (Fc fusion)", "chain": "QVQLVESGGGLVQAGGSLRLSCEVSGSIYSINSMGWYRQAPGKQRELVAGIVSDGRINYADSVKGRFTISRAKNTVYLQMNSLKPEDTAVYYCAADRAFVYAGDYDYLGQGTQVTVSS"}, "B3": {"name": "19E10 VHH-Fc (Fc fusion)", "chain": "QVQLVESGGGLVQPGGSLRLSCVASGSTISINSMGWYRQAPGKAREMVATITNDGPIKYADPVKGRFTISRDNPKNTVYLQMNSLKPEDTAVYYCVADRAYWLAGEWEYWGQGTQVTVSS"}, "B4": {"name": "10B8 VHH-Fc (Fc fusion)", "chain": "QVQLVESGGGLVQPGGSLRLSCAASGITLDYYAIAWFRQAPGKEREGVSCFCSSDGDIRYADSVKGRFTISRDNAKNTVYLQMNSLKPEDTAVYYCATERVYSSTWFFHRYSELDFGSWGRGTQVTVSS"}, "B5": {"name": "19B8 VHH-Fc (Fc fusion)", "chain": "QVQLVESGGGLVQAGGSLRLSCAASGRTFTNYAMGWFRQAPGKEREFVAAISWSGGGTNYADSVKGRFTISRDNAKNTVYLQMNSPKPEDTAVYYCATTLGYYGSSSRLYEYWGQGTQVTVSS"}, "B6": {"name": "16H7 VHH-Fc (Fc fusion)", "chain": "QVQLVESGGGLVQAGGSLRLSCAASGRAFSKDTMGWFRQAPGKEREFVAVISASGDSTYYADFVKGRFTISRDNAKNTEYLQMNSLKPEDTAVYHCAADGARAYYSINAHRYSWAYNYWGQGTQVTVSS"}, "B7": {"name": "20D11 VHH-Fc (Fc fusion)", "chain": "QVQLVESGGGLVQAGGSLRLSCAASGRTSSIYSVGWFRQAPGKERELVAGITWSGGTTYYSDSVKGRFTISRDNAKNTVNLQMNNLKPEDTAIYYCAVDRYSMTMSARDYDYWGQGTQVTVSS"}, "B8": {"name": "14F3 VHH-Fc (Fc fusion)", "chain": "B7 chain with S33G, G50L, R72K, N80F, R100T, D111E"}, "B9": {"name": "5G11 VHH-Fc (Fc fusion)", "chain": "B7 chain with S29F, S33A, E46D, L47F, N80Y, R100T, M105L, D109S"}, "B10": {"name": "11F5 VHH-Fc (Fc fusion)", "chain": "QVQLVESGGGAVQAGDSLRLSCTASGRTFSTYAVGWFRQAPGKERELLAAITGSGRNPYYPDSLKGRFTISREYAKLPVYLQMNSLKPEDTAVYYCAARRGAIATMPLDYDHWGQGTQVTVSS"}, "B11": {"name": "6A1 VHH-Fc (Fc fusion)", "chain": "QVQLVESGGGLVQAGGSLRLSCTASGNIFSVNVMGWHRQAPGKRRELVAALTNDGRRNYADSVKGRFTISRDNAKNTIYLEMNSLKPEDTAVYYCGTGTLESGFNSWGQGLQVTVSS"}}, "note": "Substitutions are numbered along the chain they refer to."}
{"biological_target": "T1, SARS-CoV-2 prefusion-stabilized spike protein (SARS-CoV-2-PreS) (SARS-CoV-2, UniProt P0DTC2 14-1208)", "test": "ELISA", "units": {"EC50": "nM"}}
{"binder": "B1", "EC50": 0.1}
{"binder": "B2", "EC50": 0.18}
{"binder": "B3", "EC50": 0.03}
{"binder": "B4", "EC50": 1.35}
{"binder": "B5", "EC50": 0.06}
{"binder": "B6", "EC50": 0.08}
{"binder": "B7", "EC50": 0.62}
{"binder": "B8", "EC50": 0.05}
{"binder": "B9", "EC50": 0.4}
{"binder": "B10", "EC50": 0.12}
{"binder": "B11", "EC50": 0.44}
{"biological_target": "SARS-CoV-2 Alpha B.1.1.7 spike on pseudovirus (SARS-CoV-2)", "test": "cell-based or functional assay", "units": {"pseudovirus neutralization IC50": "nM"}}
{"binder": "B1", "pseudovirus neutralization IC50": 22}
{"binder": "B2", "pseudovirus neutralization IC50": 6.6}
{"binder": "B3", "pseudovirus neutralization IC50": 7}
{"binder": "B4", "pseudovirus neutralization IC50": 0.38}
{"biological_target": "SARS-CoV-2 Beta B.1.351 spike on pseudovirus (SARS-CoV-2)", "test": "cell-based or functional assay", "units": {"pseudovirus neutralization IC50": "nM"}}
{"binder": "B1", "pseudovirus neutralization IC50": 4.2}
{"binder": "B2", "pseudovirus neutralization IC50": 4.1}
{"binder": "B3", "pseudovirus neutralization IC50": 3.1}
{"binder": "B4", "pseudovirus neutralization IC50": 0.23}
{"biological_target": "SARS-CoV-2 Gamma P.1 spike on pseudovirus (SARS-CoV-2)", "test": "cell-based or functional assay", "units": {"pseudovirus neutralization IC50": "nM"}}
{"binder": "B1", "pseudovirus neutralization IC50": 21}
{"binder": "B2", "pseudovirus neutralization IC50": 6.4}
{"binder": "B3", "pseudovirus neutralization IC50": 5.9}
{"binder": "B4", "pseudovirus neutralization IC50": 0.21}
{"biological_target": "SARS-CoV-2 Omicron spike on pseudovirus (SARS-CoV-2)", "test": "cell-based or functional assay", "units": {"pseudovirus neutralization IC50": "nM"}}
{"binder": "B1", "pseudovirus neutralization IC50": 52}
{"binder": "B2", "pseudovirus neutralization IC50": 42}
{"binder": "B3", "pseudovirus neutralization IC50": 309}
{"binder": "B4", "pseudovirus neutralization IC50": 4.1}
{"binder": "B5", "pseudovirus neutralization IC50": 47}
{"biological_target": "T1, SARS-CoV-2 prefusion-stabilized spike …", "test": "Biacore, apparent affinity", "units": {"Kd": "nM"}}
{"binder": "B1", "Kd": "< 0.2"}
{"binder": "B2", "Kd": "< 0.2"}
{"binder": "B3", "Kd": "< 0.2"}
{"binder": "B4", "Kd": "< 0.2"}
{"binder": "B5", "Kd": 1.1}
{"binder": "B6", "Kd": 3}
{"binder": "B7", "Kd": "< 0.2"}
{"binder": "B8", "Kd": "< 0.2"}
{"binder": "B9", "Kd": 1.5}
{"binder": "B10", "Kd": "< 0.2"}
{"binder": "B11", "Kd": 1.6}
{"biological_target": "T2, Biotinylated CoV2 Spike ECD PreS-AVI protein (SARS-CoV-2, UniProt P0DTC2 14-1208)", "test": "Octet binning; competitor 7A9"}
{"binder": "B1", "binning response": 0.36}
{"binder": "B2", "binning response": 0.38}
{"binder": "B3", "binning response": 0.3}
{"binder": "B4", "binning response": 0.42}
{"biological_target": "T2, Biotinylated CoV2 Spike ECD PreS-AVI …", "test": "Octet binning; competitor 8E9"}
{"binder": "B1", "binning response": 0.09}
{"binder": "B2", "binning response": 0.1}
{"binder": "B3", "binning response": 0.09}
{"binder": "B4", "binning response": 0.09}
{"biological_target": "T2, Biotinylated CoV2 Spike ECD PreS-AVI …", "test": "Octet binning; competitor 9B2"}
{"binder": "B1", "binning response": 0.1}
{"binder": "B2", "binning response": 0.13}
{"binder": "B3", "binning response": 0.11}
{"binder": "B4", "binning response": 0.12}
{"biological_target": "T2, Biotinylated CoV2 Spike ECD PreS-AVI …", "test": "Octet binning; competitor 11F8"}
{"binder": "B1", "binning response": 0.11}
{"binder": "B2", "binning response": 0.13}
{"binder": "B3", "binning response": 0.12}
{"binder": "B4", "binning response": 0.1}
{"biological_target": "T2, Biotinylated CoV2 Spike ECD PreS-AVI …", "test": "Octet binning; competitor 13C8"}
{"binder": "B1", "binning response": 0.12}
{"binder": "B2", "binning response": 0.11}
{"binder": "B3", "binning response": 0.11}
{"binder": "B4", "binning response": 0.12}
{"biological_target": "T2, Biotinylated CoV2 Spike ECD PreS-AVI …", "test": "Octet binning; competitor 15H1"}
{"binder": "B1", "binning response": 0.13}
{"binder": "B2", "binning response": 0.14}
{"binder": "B3", "binning response": 0.12}
{"binder": "B4", "binning response": 0.12}
{"biological_target": "T2, Biotinylated CoV2 Spike ECD PreS-AVI …", "test": "Octet binning; competitor 15H7"}
{"binder": "B1", "binning response": 0.11}
{"binder": "B2", "binning response": 0.14}
{"binder": "B3", "binning response": 0.11}
{"binder": "B4", "binning response": 0.12}
{"biological_target": "T2, Biotinylated CoV2 Spike ECD PreS-AVI …", "test": "Octet binning; competitor 1A11"}
{"binder": "B1", "binning response": 0.1}
{"binder": "B2", "binning response": 0.1}
{"binder": "B3", "binning response": 0.08}
{"binder": "B4", "binning response": 0.1}
{"biological_target": "T2, Biotinylated CoV2 Spike ECD PreS-AVI …", "test": "Octet binning; competitor 19B8"}
{"binder": "B5", "binning response": 0.08}
{"binder": "B6", "binning response": 0.19}
{"binder": "B7", "binning response": 0.43}
{"binder": "B8", "binning response": 0.46}
{"binder": "B9", "binning response": 0.4}
{"binder": "B10", "binning response": 0.52}
{"binder": "B11", "binning response": 0.4}
{"biological_target": "T2, Biotinylated CoV2 Spike ECD PreS-AVI …", "test": "Octet binning; competitor Std-A"}
{"binder": "B1", "binning response": 0.32}
{"binder": "B2", "binning response": 0.35}
{"binder": "B3", "binning response": 0.26}
{"binder": "B4", "binning response": 0.39}
{"biological_target": "T2, Biotinylated CoV2 Spike ECD PreS-AVI …", "test": "Octet binning; competitor Std-B"}
{"binder": "B1", "binning response": 0.32}
{"binder": "B2", "binning response": 0.34}
{"binder": "B3", "binning response": 0.22}
{"binder": "B4", "binning response": 0.36}
{"biological_target": "T2, Biotinylated CoV2 Spike ECD PreS-AVI …", "test": "Octet binning; competitor Std-D"}
{"binder": "B1", "binning response": 0.05}
{"binder": "B2", "binning response": 0.06}
{"binder": "B3", "binning response": 0.06}
{"binder": "B4", "binning response": 0.05}
{"biological_target": "T2, Biotinylated CoV2 Spike ECD PreS-AVI …", "test": "Octet binning; competitor 20D11"}
{"binder": "B5", "binning response": 0.48}
{"binder": "B6", "binning response": 0.56}
{"binder": "B7", "binning response": 0.04}
{"binder": "B8", "binning response": 0.04}
{"binder": "B9", "binning response": 0.05}
{"binder": "B10", "binning response": 0.1}
{"binder": "B11", "binning response": 0.37}
